Source: publication PMC2787996 (Biochemical and biophysical research communications, 2009)

Molecular target: T1, dDis3-FLAG (Drosophila melanogaster, UniProt Q9VC93 1-982)
T1 sequence (looked up): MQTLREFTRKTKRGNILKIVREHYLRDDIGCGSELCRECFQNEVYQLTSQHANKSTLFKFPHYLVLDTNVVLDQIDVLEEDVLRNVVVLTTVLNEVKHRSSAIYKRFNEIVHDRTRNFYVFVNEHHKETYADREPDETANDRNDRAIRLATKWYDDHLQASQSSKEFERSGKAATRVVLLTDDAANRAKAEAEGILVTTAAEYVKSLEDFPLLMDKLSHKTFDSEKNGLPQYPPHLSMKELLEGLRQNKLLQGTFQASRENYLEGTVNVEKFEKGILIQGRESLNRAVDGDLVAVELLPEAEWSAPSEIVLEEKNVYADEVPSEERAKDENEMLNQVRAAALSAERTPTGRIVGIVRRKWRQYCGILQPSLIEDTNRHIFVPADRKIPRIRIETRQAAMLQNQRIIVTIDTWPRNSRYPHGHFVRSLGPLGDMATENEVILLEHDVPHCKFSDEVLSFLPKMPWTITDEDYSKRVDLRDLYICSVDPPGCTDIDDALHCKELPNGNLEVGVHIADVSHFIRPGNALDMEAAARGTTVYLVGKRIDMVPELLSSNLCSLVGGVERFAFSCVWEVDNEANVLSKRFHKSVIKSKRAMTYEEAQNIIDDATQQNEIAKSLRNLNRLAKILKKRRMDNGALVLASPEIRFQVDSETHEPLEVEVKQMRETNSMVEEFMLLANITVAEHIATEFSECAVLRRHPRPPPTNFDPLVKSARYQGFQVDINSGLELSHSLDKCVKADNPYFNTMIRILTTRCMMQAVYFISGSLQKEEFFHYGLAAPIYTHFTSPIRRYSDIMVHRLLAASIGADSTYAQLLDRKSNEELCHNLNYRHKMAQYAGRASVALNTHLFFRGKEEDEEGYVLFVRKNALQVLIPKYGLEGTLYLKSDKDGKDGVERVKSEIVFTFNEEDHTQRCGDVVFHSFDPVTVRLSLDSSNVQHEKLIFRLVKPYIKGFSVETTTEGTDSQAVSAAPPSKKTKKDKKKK
Assay: co-IP

B1: dRrp6 (natural protein, UniProt Q9VFF3 1-900, looked up)
chain: MPRTPKRVHQEAKEESAQADQPPKKSASEDVEAFTNKGFKNAIAATKAANAFPQGTARALYLSYPGYARVMEDLTQRVVALIGNVLHSKDIKGDIKKRQPEEQFEMVQECNDVLFERITTNLDIKGGLRRNTQQVVEAQVDVMSSSTSIEPAVASPQTQGTPKAGSWNRTTGTPQRSMVSARLFTAKNIVRPQTQFREPVDNSAQNPFVPRLKEKPNSLKPLALLPEYDDAGNVQSYLHPYEFELLKFQPPEEQFQKQKPVLPALMAETELMVVDTVEKLKQALEELRQAPQIAIDVEHHSYRTFMGITCLVQMSTRSKDYIFDTLILRDDMHILNLVLTDPKKLKILHGADLDIEWLQRDLSLYIVNMFDTHRAAKALNMARLSLAYLLKHYLDLDVDKSLQLADWRMRPLPQQLVDYARQDTHFLIYVYGRMTNDLLQQHAEPGLLGSVYQQSTDVCKKRYNKPHIGPESHLDLVRKTKRSFDNRQLYALRGIFEWRDATARSEDESYGYVLPNHMMLQIAESLPREMQGILACCNPIPPLVRQQLHTLHQIVLKARDQPLVKPILEAHSSTQAALPPSTKDFSSKLYCPHDFSQLEEIRDDLPTLLKRNSTTGKLEVPNKEEVAKVDPTLAAPAMALFEKQSKPTQEEEQRWAHLRKESQTMRMPYKRYLAILPLMVQLKADQLARERSELQKRQLCPAAPTVEQNIKLEAHAIGKEDDDMYSVPLKEQLKRKHPQANVKTDPEQQPTASKRPRKDENSQTKPPVKIEPVEKVQQALGESDDEVVEVPIERQATEPPKPSPAQNNRKQKKNQFQRGFKAKNRGNHPQSSSQQVPQHKGTGNFDYKNVDFRQFKGGAQRARGTEIKQQIRGKNRPNNRNNKQFNKLFTFSNVRKEGKK
In the case of B1, the “fold reduction in recovery (0.2 M Mg2+ against 0.01 M Mg2+)” value is reported as about 2 fold.
